Experimental data as given in paper PMC2830148 (Biochemistry, 2009).

Target: the molecule itself
Experiment: SEC

Row | Protein | stoichiometry N | binding result
1 | human TRAF2 construct RZ1 (RING and first zinc finger domains, residues 1-133-His), wild type (domain or fragment, UniProt Q12933 1-133, looked up) MAAASVTPPGSLELLQPGFSKTLLGTKLEAKYLCSACRNVLRRPFQAQCGHRYCSFCLASILSSGPQNCAACVHEGIYEEGISILESSSAFPDNAARREVESLPAVCPSDGCTWKGTLKEYESCHEGRCPLML | 2 | –
2 | TRAF2 RZ1 N94A mutant (domain or fragment, human, UniProt Q12933 1-133, looked up) MAAASVTPPGSLELLQPGFSKTLLGTKLEAKYLCSACRNVLRRPFQAQCGHRYCSFCLASILSSGPQNCAACVHEGIYEEGISILESSSAFPDAAARREVESLPAVCPSDGCTWKGTLKEYESCHEGRCPLML | – | binds
3 | TRAF2 RZ1 Q46A mutant (domain or fragment, human, UniProt Q12933 1-133, looked up) MAAASVTPPGSLELLQPGFSKTLLGTKLEAKYLCSACRNVLRRPFAAQCGHRYCSFCLASILSSGPQNCAACVHEGIYEEGISILESSSAFPDNAARREVESLPAVCPSDGCTWKGTLKEYESCHEGRCPLML | – | binds
